The values that follow come from patent publication US6399326 (Harvard, dated 2002).

In experiment [1] the target is T1, PTP-NP extracellular domain marked with an immunoglobulin tag (mouse, UniProt P80560 28-600).
T1 construct: not shown: immunoglobulin tag
T1 chain: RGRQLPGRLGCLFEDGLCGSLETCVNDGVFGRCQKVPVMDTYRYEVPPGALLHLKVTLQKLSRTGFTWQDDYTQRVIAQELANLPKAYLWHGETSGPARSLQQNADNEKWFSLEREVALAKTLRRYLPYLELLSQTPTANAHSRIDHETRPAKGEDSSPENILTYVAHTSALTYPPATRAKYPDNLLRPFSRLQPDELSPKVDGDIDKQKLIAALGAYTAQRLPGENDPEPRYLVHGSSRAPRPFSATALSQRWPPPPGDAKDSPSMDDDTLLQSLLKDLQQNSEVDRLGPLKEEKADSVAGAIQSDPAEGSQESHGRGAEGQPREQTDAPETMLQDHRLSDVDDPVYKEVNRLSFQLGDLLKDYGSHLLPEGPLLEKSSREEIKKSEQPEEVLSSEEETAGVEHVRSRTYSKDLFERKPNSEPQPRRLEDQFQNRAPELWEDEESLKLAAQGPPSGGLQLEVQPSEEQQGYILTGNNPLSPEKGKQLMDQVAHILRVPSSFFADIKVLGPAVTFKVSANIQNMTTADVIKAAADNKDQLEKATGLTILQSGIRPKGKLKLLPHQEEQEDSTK
Briefly: in vitro binding of the two differently tagged extracellular domains (data not shown).

The target of experiment [2] is T2, PTP-NP (on cells transfected with PTP-NP) (mouse, UniProt P80560 28-1001).
T2 construct: also called PTP-NP type 1; neural and pancreatic receptor protein tyrosine phosphatase
T2 chain: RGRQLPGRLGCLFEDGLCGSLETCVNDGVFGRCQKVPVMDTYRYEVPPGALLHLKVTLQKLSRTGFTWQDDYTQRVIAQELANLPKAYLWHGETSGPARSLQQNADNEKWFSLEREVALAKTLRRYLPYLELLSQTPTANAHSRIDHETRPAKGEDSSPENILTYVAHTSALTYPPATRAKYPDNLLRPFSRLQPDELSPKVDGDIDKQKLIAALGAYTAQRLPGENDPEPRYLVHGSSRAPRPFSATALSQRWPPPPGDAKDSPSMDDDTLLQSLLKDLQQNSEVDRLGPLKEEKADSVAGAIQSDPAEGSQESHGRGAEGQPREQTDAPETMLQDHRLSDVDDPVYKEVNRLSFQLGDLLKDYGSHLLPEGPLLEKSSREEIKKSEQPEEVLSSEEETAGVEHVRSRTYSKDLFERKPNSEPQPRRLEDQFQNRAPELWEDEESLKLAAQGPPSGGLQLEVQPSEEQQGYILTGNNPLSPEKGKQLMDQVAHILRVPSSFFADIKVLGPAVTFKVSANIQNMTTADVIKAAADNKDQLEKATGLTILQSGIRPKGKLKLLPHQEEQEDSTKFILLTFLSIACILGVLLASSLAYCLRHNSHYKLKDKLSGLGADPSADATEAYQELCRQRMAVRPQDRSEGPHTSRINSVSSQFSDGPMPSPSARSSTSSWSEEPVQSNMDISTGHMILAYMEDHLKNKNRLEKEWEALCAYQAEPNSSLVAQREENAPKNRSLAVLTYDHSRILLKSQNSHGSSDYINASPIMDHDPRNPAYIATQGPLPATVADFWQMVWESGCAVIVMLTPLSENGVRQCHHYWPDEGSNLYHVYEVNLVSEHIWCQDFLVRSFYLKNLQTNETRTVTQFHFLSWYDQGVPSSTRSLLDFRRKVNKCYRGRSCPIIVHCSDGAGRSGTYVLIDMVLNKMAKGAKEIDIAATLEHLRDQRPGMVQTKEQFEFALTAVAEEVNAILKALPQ
Briefly: NP-AP probe on cells transfected with PTP-NP (data not shown).

B1: NP-AP fusion protein (extracellular domain of PTP-NP fused to an alkaline phosphatase tag) (other)
chain: T1 chain
notes: Used as unpurified supernatant of transfected COS cells; also called NP-AP probe; not shown: limits and
Consider B1, for which the binding result in experiment [1] and in experiment [2] was “no binding” each time.
